Source: US20210246166A1 (Bayer, published 2021)
Numbered stars: 1 amine (or outer) side, 2 acyl side, 3 side chain; on linkers, the order of the positions; unused ones are H or OH. Bridge positions count the residues as written; N and C are the ends. Square brackets hold non-standard residues; d marks the D form. Ends that are not written are not given here. * marks the point of attachment. X12 = (S)‑(trifluoromethyl)‑L‑cysteine, O=C([C@H](CSC(F)(F)F)N[*:1])[*:2]; (N,N-diMe)A = (N,N-diMe)A, L-N,N-dimethylalanine, C[C@@H](C(=O)*)N(C)C; Oic = O=C(O)[C@@H]1C[C@@H]2CCCC[C@@H]2N1; Phe(2-Cl) = N[C@@H](Cc1ccccc1Cl)C(=O)O; tBuAla = CC(C)(C)C[C@H](N)C(=O)O; Pen = CC(C)(S)[C@H](N)C(=O)O; ΔPro = O=C(O)[C@@H]1C=CCN1; 4Amb = NCc1ccc(C(=O)O)cc1; NMeC = CN[C@@H](CS)C(=O)O; Orn = NCCC[C@H](N)C(=O)O

Assays:
[1] = target: T1, Recombinant human MASP1 enzyme (fragment corresponding to amino acids 297-699, C-terminal His Tag) (human, UniProt P48740 297-699); test: cell-based or functional assay
T1 sequence: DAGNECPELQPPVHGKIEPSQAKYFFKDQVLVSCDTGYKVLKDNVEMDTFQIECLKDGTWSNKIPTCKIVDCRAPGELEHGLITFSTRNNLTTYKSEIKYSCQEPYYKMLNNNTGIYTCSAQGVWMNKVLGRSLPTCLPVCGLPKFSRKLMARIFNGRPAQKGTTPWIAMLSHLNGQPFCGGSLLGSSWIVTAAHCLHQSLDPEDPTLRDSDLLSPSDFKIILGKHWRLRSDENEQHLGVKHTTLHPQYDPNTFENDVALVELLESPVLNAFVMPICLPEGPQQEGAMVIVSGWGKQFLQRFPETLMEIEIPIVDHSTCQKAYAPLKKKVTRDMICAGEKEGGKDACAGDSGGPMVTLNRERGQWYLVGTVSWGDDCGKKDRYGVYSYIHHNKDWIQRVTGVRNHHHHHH

[2] = target: Recombinant human MASP2 enzyme (fragment corresponding to amino acids 297-686, C-terminal His Tag) (human, UniProt O00187 297-686); test: cell-based or functional assay
Recombinant human MASP2 enzyme (fragment corresponding to amino acids 297-686, C-terminal His Tag), sequence (O00187 other isoform, or with tags, fused parts or gaps limits assumed): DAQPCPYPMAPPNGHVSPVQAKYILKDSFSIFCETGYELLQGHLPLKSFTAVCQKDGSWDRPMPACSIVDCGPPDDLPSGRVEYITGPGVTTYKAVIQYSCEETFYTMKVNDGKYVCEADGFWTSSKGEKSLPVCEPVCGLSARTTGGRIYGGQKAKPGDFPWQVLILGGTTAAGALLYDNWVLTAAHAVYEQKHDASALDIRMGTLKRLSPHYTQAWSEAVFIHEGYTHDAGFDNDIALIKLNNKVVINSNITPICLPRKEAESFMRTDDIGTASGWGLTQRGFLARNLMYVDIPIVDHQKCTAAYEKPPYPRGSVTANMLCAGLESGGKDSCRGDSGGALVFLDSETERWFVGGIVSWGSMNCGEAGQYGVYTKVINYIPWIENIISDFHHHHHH

B1: AIC+SRS-((2-Chloro)F)-PPI-((N-Me)C)+IPD-NH2 (peptide)
peptide: AICSRS[Phe(2-Cl)]PPI[NMeC]IPD-NH2
modifications: disulfide 3-11; N-terminus assumed
SMILES: CC[C@H](C)[C@H](NC(=O)[C@H](C)N)C(=O)N[C@H]1CSSC[C@@H](C(=O)N[C@H](C(=O)N2CCC[C@H]2C(=O)N[C@@H](CC(=O)O)C(N)=O)[C@@H](C)CC)N(C)C(=O)[C@H]([C@@H](C)CC)NC(=O)[C@@H]2CCCN2C(=O)[C@@H]2CCCN2C(=O)[C@H](Cc2ccccc2Cl)NC(=O)[C@H](CO)NC(=O)[C@H](CCCNC(=N)N)NC(=O)[C@H](CO)NC1=O
- human MASP1 IC50 [1]: 8.1 nM
- human MASP2 IC50 [2]: 130 nM

B2: (4-(Aminomethyl)benzoic acid)-IC+SRS-((tBu)A)-PPI-((N-Me)C)+IPD-NH2 (peptide)
peptide: [4Amb]ICSRS[tBuAla]PPI[NMeC]IPD-NH2
modifications: disulfide 3-11; N-terminus assumed
SMILES: CC[C@H](C)[C@H](NC(=O)c1ccc(CN)cc1)C(=O)N[C@H]1CSSC[C@@H](C(=O)N[C@H](C(=O)N2CCC[C@H]2C(=O)N[C@@H](CC(=O)O)C(N)=O)[C@@H](C)CC)N(C)C(=O)[C@H]([C@@H](C)CC)NC(=O)[C@@H]2CCCN2C(=O)[C@@H]2CCCN2C(=O)[C@H](CC(C)(C)C)NC(=O)[C@H](CO)NC(=O)[C@H](CCCNC(=N)N)NC(=O)[C@H](CO)NC1=O
- human MASP1 IC50 [1]: 8.1 nM
- human MASP2 IC50 [2]: 35 nM

B3: AIC+SRSL-(L-dehydroproline)-(Oic)-I-(Pen)+IPD-OH (peptide)
peptide: AICSRSL[ΔPro][Oic]I[Pen]IPD-OH
modifications: disulfide 3-11; N-terminus assumed
SMILES: CC[C@H](C)[C@H](NC(=O)[C@H](C)N)C(=O)N[C@H]1CSSC(C)(C)[C@@H](C(=O)N[C@H](C(=O)N2CCC[C@H]2C(=O)N[C@@H](CC(=O)O)C(=O)O)[C@@H](C)CC)NC(=O)[C@H]([C@@H](C)CC)NC(=O)[C@@H]2C[C@@H]3CCCC[C@@H]3N2C(=O)[C@@H]2C=CCN2C(=O)[C@H](CC(C)C)NC(=O)[C@H](CO)NC(=O)[C@H](CCCNC(=N)N)NC(=O)[C@H](CO)NC1=O
- human MASP1 IC50 [1]: 9.3 nM
- human MASP2 IC50 [2]: 64 nM

B4: (Orn)-IC+SRS-((S)-(trifluoromethyl)-L-cysteine)-PPI-(Pen)+IP-NH2 (peptide)
peptide: [Orn]ICSRS[X12]PPI[Pen]IP-NH2
modifications: disulfide 3-11; N-terminus assumed
SMILES: CC[C@H](C)[C@H](NC(=O)[C@@H](N)CCCN)C(=O)N[C@H]1CSSC(C)(C)[C@@H](C(=O)N[C@H](C(=O)N2CCC[C@H]2C(N)=O)[C@@H](C)CC)NC(=O)[C@H]([C@@H](C)CC)NC(=O)[C@@H]2CCCN2C(=O)[C@@H]2CCCN2C(=O)[C@H](CSC(F)(F)F)NC(=O)[C@H](CO)NC(=O)[C@H](CCCNC(=N)N)NC(=O)[C@H](CO)NC1=O
- human MASP1 IC50 [1]: 8.1 nM
- human MASP2 IC50 [2]: 56 nM

B5: AIC+SRSL-((4aR,6aR,9S,11aS)-11-Oxo-2,3,4,4a,6a,7,8,9,11,11a-decahydro-1H-pyrido[3,2-e]pyrrolo[1,2-a]azepine-9-carboxylic acid)-IC+IPD-NH2 (peptide)
peptide: AICSRSL[(4aR,6aR,9S,11aS)‑11‑Oxo‑2,3,4,4a,6a,7,8,9,11,11a‑decahydro‑1H‑pyrido(3,2-e)pyrrolo(1,2-a)azepine‑9‑carboxylic acid]ICIPD-NH2
modifications: disulfide 3-10
- human MASP1 IC50 [1]: 8.2 nM
- human MASP2 IC50 [2]: 72.5 nM

B6: ((N,N-diMe)A)-IC+SRS-((tBu)A)-PPIC+IPD-NH2 (peptide)
peptide: [(N,N-diMe)A]ICSRS[tBuAla]PPICIPD-NH2
modifications: disulfide 3-11; N-terminus assumed
SMILES: CC[C@H](C)[C@H](NC(=O)[C@H](C)N(C)C)C(=O)N[C@H]1CSSC[C@@H](C(=O)N[C@H](C(=O)N2CCC[C@H]2C(=O)N[C@@H](CC(=O)O)C(N)=O)[C@@H](C)CC)NC(=O)[C@H]([C@@H](C)CC)NC(=O)[C@@H]2CCCN2C(=O)[C@@H]2CCCN2C(=O)[C@H](CC(C)(C)C)NC(=O)[C@H](CO)NC(=O)[C@H](CCCNC(=N)N)NC(=O)[C@H](CO)NC1=O
- human MASP1 IC50 [1]: 8.3 nM
- human MASP2 IC50 [2]: 120 nM
